Data reported in PMC7545189, “Structural characterization of the ICOS/ICOS-L immune complex reveals high molecular mimicry by therapeutic antibodies” (Nature Communications, 2020).

What was measured:
[1] = target: T1, human ICOS-L ectodomain (residues 19-248), His-tagged, immobilised on Ni-NTA biosensors (human, UniProt O75144); assay: BLI; His-tagged ICOS or ICOS-L on Ni-NTA biosensors, Fabs as analytes (prezalumab 1:2 serial dilutions from 31 nM); PBS pH 7.4, 0.01% BSA, 0.002% Tween; 1:1 fit; settings: both partners purified
T1 construct: also called ICOS ligand; CD275; source: HEK 293F, transiently transfected, purified from the supernatant (HisTrap Ni-NTA); not shown: His6, C-terminal, kept

[2] = target: T2, human ICOS-L ectodomain (residues 19-248), His-tagged, immobilised on Ni-NTA biosensors (human, UniProt O75144 19-248); assay: BLI
T2 chain: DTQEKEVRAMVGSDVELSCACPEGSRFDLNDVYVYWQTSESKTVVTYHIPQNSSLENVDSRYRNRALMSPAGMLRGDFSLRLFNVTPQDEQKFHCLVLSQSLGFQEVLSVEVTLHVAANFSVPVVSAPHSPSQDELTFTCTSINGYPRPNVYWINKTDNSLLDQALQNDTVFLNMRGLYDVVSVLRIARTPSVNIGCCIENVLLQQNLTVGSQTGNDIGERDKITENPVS

[3] = target: T2, human ICOS-L ectodomain (residues …); assay: BLI
[4] = target: T3, human ICOS-L ectodomain (residues 19-248), crystallised in complexes (human, UniProt O75144); assay: crystal structure; ICOS-L/prezalumab Fab/VNAR complex, co-expressed and co-purified, 3.15 A; 0.2 M di-ammonium tartrate, 20% PEG 3350; settings: both partners purified
T3 construct: not shown: Venus (monomeric variant), C-terminal, cleaved; His6, C-terminal, cleaved

[5] = target: T4, human ICOS-L ectodomain (residues 19-248), untagged monomer (human, UniProt O75144 19-248); assay: BLI; His-tagged ICOS on Ni-NTA biosensors (0.8 nm), untagged ICOS-L as analyte, 1:2 serial dilutions from 500 nM; PBS pH 7.4, 0.01% BSA, 0.002% Tween; 180 s association and dissociation; 1:1 fit; settings: both partners purified
T4 construct: Residues of the TEV site probably remain at the C-terminus after cleavage; also called ICOS-L ectodomain monomer; CD275; source: HEK 293F, transiently transfected, purified (HisTrap Ni-NTA, TEV digestion, second Ni-NTA, Superdex 200); not shown: Venus (monomeric variant), C-terminal, cleaved; His6, C-terminal, cleaved
T4 sequence (looked up): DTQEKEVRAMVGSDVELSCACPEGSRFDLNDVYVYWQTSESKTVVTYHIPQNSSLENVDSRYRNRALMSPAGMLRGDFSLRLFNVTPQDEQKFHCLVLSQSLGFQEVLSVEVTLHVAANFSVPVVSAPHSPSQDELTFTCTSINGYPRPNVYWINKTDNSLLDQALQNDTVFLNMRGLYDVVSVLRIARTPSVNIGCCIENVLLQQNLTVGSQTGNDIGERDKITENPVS

[6] = target: T5, human ICOS-L ectodomain (residues 19-248), His-tagged, immobilised on Ni-NTA biosensors (human, UniProt O75144 19-248); assay: BLI; His-tagged ICOS-L on Ni-NTA biosensors (0.8 nm), untagged ICOS (wild-type and mutants) as analyte, 1:2 serial dilutions from 125 nM; PBS pH 7.4, 0.01% BSA, 0.002% Tween; 1:1 fit; apparent constant (avidity of the ICOS homodimer); settings: both partners purified
T5 construct: also called ICOS ligand; CD275; source: HEK 293F, transiently transfected, purified from the supernatant (HisTrap Ni-NTA); not shown: His6, C-terminal, kept
T5 sequence (looked up): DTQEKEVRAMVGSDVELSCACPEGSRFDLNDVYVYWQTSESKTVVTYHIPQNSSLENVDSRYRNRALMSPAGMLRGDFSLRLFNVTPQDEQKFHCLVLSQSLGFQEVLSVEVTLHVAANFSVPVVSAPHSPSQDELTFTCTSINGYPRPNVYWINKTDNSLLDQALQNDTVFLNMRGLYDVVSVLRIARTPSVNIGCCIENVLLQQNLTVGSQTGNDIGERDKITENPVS

B1: prezalumab Fab (purified, for BLI) (Fab, V domains shown)
VH: EVQLVESGGGLVQPGGSLRLSCAASGFTFSSYWMSWVRQAPGKGLEWVAYIKQDGNEKYYVDSVKGRFTISRDNAKNSLYLQMNSLRAEDTAVYYCAREGILWFGDLPTFWGQGTLVTVSS
VL: DIQMTQSPSSLSASVGDRVTITCRASQGISNWLAWYQQKPEKAPKSLIYAASSLQSGVPSRFSGSGSGTDFTLTISSLQPEDFATYYCQQYDSYPRTFGQGTKVEIK
notes: Fab heavy chain of prezalumab; Fab light chain of prezalumab; Purified on KappaSelect; also called humanized monoclonal anti ICOS-L antibody; source: HEK 293F, transiently co-transfected LC and HC, purified (KappaSelect, MonoS, Superdex 200)
binding result [1]: binds
koff [2]: 0.0045 s⁻¹
Kd [3]: 5.5 nM

B2: prezalumab Fab (co-expressed with ICOS-L and VNAR, for the crystal structure) (Fab, V domains shown)
VH: EVQLVESGGGLVQPGGSLRLSCAASGFTFSSYWMSWVRQAPGKGLEWVAYIKQDGNEKYYVDSVKGRFTISRDNAKNSLYLQMNSLRAEDTAVYYCAREGILWFGDLPTFWGQGTLVTVSS
VL: DIQMTQSPSSLSASVGDRVTITCRASQGISNWLAWYQQKPEKAPKSLIYAASSLQSGVPSRFSGSGSGTDFTLTISSLQPEDFATYYCQQYDSYPRTFGQGTKVEIK
notes: as the heavy chain of m14; as the light chain of m14; source: HEK 293S (Gnt I-/-), co-transfected with ICOS-L and VNAR, complex purified
binding result [4]: binds

B3: human ICOS ectodomain (residues 21-138), His-tagged, immobilised on Ni-NTA biosensors (receptor, UniProt Q9Y6W8 21-138, looked up)
chain: EINGSANYEMFIFHNGGVQILCKYPDIVQQFKMQLLKGGQILCDLTKTKGSGNTVSIKSLKFCHSQLSNNSVSFFLYNLDHSHANYYFCNLSIFDPPPFKVTLTGGYLHIYESQLCCQ
notes: human ICOS ectodomain, UniProtKB Q9Y6W8, residues 21-138, followed by a TEV cleavage site; The His6 tag of the vector lies C-terminal of TEV site and Venus, so the His-tagged form used for loading is probably the undigested ICOS-TEV-Venus-His6 fusion; also called inducible T-cell co-stimulator; CD278; source: HEK 293F, transiently transfected, purified from the supernatant (HisTrap Ni-NTA); not …
Kd [5]: 722 nM
koff [5]: 0.16 s⁻¹

B4: human ICOS ectodomain (residues 21-138), untagged, disulfide-linked homodimer (receptor, UniProt Q9Y6W8 21-138, looked up)
chain: EINGSANYEMFIFHNGGVQILCKYPDIVQQFKMQLLKGGQILCDLTKTKGSGNTVSIKSLKFCHSQLSNNSVSFFLYNLDHSHANYYFCNLSIFDPPPFKVTLTGGYLHIYESQLCCQ
notes: human ICOS ectodomain, UniProtKB Q9Y6W8, residues 21-138; Residues of the TEV site probably remain at the C-terminus after cleavage; also called ICOS WT; ICOS disulfide-linked homodimers; source: HEK 293F, transiently transfected, purified (HisTrap Ni-NTA, TEV digestion, second Ni-NTA, Superdex 200); not shown: Venus (monomeric variant), C-terminal, cleaved; His6, C-terminal, cleaved
Kd [6]: 10 nM

B5: human ICOS ectodomain N110Q (N110 glycan knock-out mutant), analyte (receptor, UniProt Q9Y6W8 21-138, looked up)
chain: EINGSANYEMFIFHNGGVQILCKYPDIVQQFKMQLLKGGQILCDLTKTKGSGNTVSIKSLKFCHSQLSNNSVSFFLYNLDHSHANYYFCQLSIFDPPPFKVTLTGGYLHIYESQLCCQ
notes: human ICOS ectodomain, UniProtKB Q9Y6W8, N110Q removes the N-linked glycosylation site; limits are those of the ectodomain construct of the methods; also called ICOS N110Q; ICOS N110 glycan knock-out mutant; source: HEK 293F, transiently transfected, purified (as the ICOS ectodomain); not shown: Venus (monomeric variant), C-terminal, cleaved; His6, C-terminal, cleaved
fold improvement in binding affinity against WT ICOS [6]: 4.3 fold
